Article PMC5650626, “Deletion of MtrA Inhibits Cellular Development of Streptomyces coelicolor and Alters Expression of Developmental Regulatory Genes”

Key:
[1] = molecular target: T1, MtrA (MtrASCO) (Streptomyces coelicolor M145) (UniProt Q9KYW8); test: EMSA; conditions: EMSA: 20 mM Tris-HCl pH 8.0, 2 mM EDTA, 20 mM KCl, 0.5 mM DTT, 4% Ficoll-400, 2 ug poly(dI-dC), 50 fmol probe, 20 ul, room temperature 15 min; footprinting …
T1 sequence: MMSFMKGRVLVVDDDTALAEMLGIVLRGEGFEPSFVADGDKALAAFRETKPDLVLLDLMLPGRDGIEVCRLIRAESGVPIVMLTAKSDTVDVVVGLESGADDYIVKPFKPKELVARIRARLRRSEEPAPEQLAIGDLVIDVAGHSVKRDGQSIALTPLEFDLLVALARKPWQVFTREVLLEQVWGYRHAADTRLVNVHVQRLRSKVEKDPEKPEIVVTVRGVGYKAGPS

MtrA (MtrASCO) [2] = molecular target: T2, MtrA (MtrASCO) (Streptomyces coelicolor M145, UniProt Q9KYW8 1-229); test: EMSA; shift increases with MtrA; EMSA: 20 mM Tris-HCl pH 8.0, 2 mM EDTA, 20 mM KCl, 0.5 mM DTT, 4% Ficoll-400, 2 ug poly(dI-dC), 50 fmol probe, 20 ul, room temperature 15 min; footprinting 25 C, 30 min, 400 ng probe, 40 ul, poly(dI-dC); conditions: protein: recombinant; tags: His-tag (pET28a NdeI/HindIII; native stop codon in primer); chain copies: 2; label: biotin-11-UTP 3' end; blunt
T2 sequence: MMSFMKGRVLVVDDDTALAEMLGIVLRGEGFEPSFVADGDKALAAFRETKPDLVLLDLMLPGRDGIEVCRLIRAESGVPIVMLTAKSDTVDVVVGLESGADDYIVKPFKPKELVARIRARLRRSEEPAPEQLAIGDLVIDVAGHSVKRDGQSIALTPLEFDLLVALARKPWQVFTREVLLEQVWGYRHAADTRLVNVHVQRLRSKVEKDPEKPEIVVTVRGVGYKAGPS

MtrA (MtrASCO) [3] = molecular target: T2, MtrA (MtrASCO); test: EMSA; almost complete shift at 1.6 ug; EMSA: 20 mM Tris-HCl pH 8.0, 2 mM EDTA, 20 mM KCl, 0.5 mM DTT, 4% Ficoll-400, 2 ug poly(dI-dC), 50 fmol probe, 20 ul, room temperature 15 min; footprinting 25 C, 30 min, 400 ng probe, 40 ul, poly(dI-dC); conditions: protein: recombinant; tags: His-tag (pET28a NdeI/HindIII; native stop codon in primer); chain copies: 2; label: biotin-11-UTP 3' end; blunt
MtrA (MtrASCO) [4] = molecular target: T2, MtrA (MtrASCO); test: EMSA; complete shift at lowest amount (1.6 ug); EMSA: 20 mM Tris-HCl pH 8.0, 2 mM EDTA, 20 mM KCl, 0.5 mM DTT, 4% Ficoll-400, 2 ug poly(dI-dC), 50 fmol probe, 20 ul, room temperature 15 min; footprinting 25 C, 30 min, 400 ng probe, 40 ul, poly(dI-dC); conditions: protein: recombinant; tags: His-tag (pET28a NdeI/HindIII; native stop codon in primer); chain copies: 2; label: biotin-11-UTP 3' end; blunt
MtrA (MtrASCO) [5] = molecular target: T2, MtrA (MtrASCO); test: EMSA; stronger than whiI-b; 2.1-6.3 ug MtrA; EMSA: 20 mM Tris-HCl pH 8.0, 2 mM EDTA, 20 mM KCl, 0.5 mM DTT, 4% Ficoll-400, 2 ug poly(dI-dC), 50 fmol probe, 20 ul, room temperature 15 min; footprinting 25 C, 30 min, 400 ng probe, 40 ul, poly(dI-dC); conditions: protein: recombinant; tags: His-tag (pET28a NdeI/HindIII; native stop codon in primer); chain copies: 2; label: biotin-11-UTP 3' end; blunt
MtrA (MtrASCO) [6] = molecular target: T2, MtrA (MtrASCO); test: EMSA; lower affinity than whiI-a; 2.1-6.3 ug MtrA; EMSA: 20 mM Tris-HCl pH 8.0, 2 mM EDTA, 20 mM KCl, 0.5 mM DTT, 4% Ficoll-400, 2 ug poly(dI-dC), 50 fmol probe, 20 ul, room temperature 15 min; footprinting 25 C, 30 min, 400 ng probe, 40 ul, poly(dI-dC); conditions: protein: recombinant; tags: His-tag (pET28a NdeI/HindIII; native stop codon in primer); chain copies: 2; label: biotin-11-UTP 3' end; blunt

CACCAGCCGTCGTTCATCGTTCCGGGCAGGGGGTCCGCACGTCCGGAGGAGGTTCCGTCACTTTGTCGACACGGCCACTTTCGGCCTCGTATCGACAAAGTGCGGAACCGTTCGATCTTCGAATGATCGACAGTGTGTCCGAATTGCTCGGATTGTTACTCACCAGATCGTGATCATTCTCTAAAGGCGGACGCGTTCGGTGCCGAAGACGACTGTGACCTTGAAAGCACGGTTCGTCCCGGCTTAAACCCCATGAGCCGGCCCCGTCCCCGCACCCCAGGAGGCCTGGTGTC (double strand) [whiI upstream PCR probe (293 bp)]
binding [1]: binds

CGTCAGGGATGCGTCAGGAGTGCGTCAGGGGTCCGAGAGGGGTCCGACCGAGGTGCGCCGGGGCCTTCATGCATGCCCCGTACGGCCCGTCGGGGCCCGCCACGGCGCAGGCTTCACCCGCTTAACCCTCCTGGTTCGCGGTCCCCGCGGGCACGGCCCACGATCGTGCTTACGCGACCGTCGCACCCCGCCGGCCTGGCGGGCGCCGCCGACGATCGCCCCAGTCCACGAGGATGACCGGAGAAGAGGTGGGCCGGATGACGGTCT (double strand) [whiE-ORF1 upstream PCR probe (267 bp)]
binding [1]: no binding

GGACATATGGCTCCCCGGACAAGGTGTCGACGCGGCAGGCTGTGTTGTCGGCCGCGCGGCTGGTAACTCACTGTGAGGTTACGCAGCGTTACTCTGCTGCGTCAAGCCGAATGGTCCGCACCGACTCTTCCGTGGTATTCGCCATCCATTACTCCGTGCGGGTGATCGATGTGGGGCAGAGGAGTGACGGGGGAGTGTCAGGGGGGTCATCGGAGAGGTTCTGTGAGCCTGCTACCGTAGGTGGCGCATATCCGACGTCCTTTAAGGTCCGTCCCGTGAGGC (double strand) [bldD upstream PCR probe (282 bp)]
binding [1]: binds

GTCGTCCCCGATGGCAGGTGTAGGCCCCGCGGGTGCGTTCAGTGCCGTCACGGTTGATGCGGCAGCGGCCCGGCGTCGCGAACTTCCTTGACGTCGTGTGCCGTCGGCCGGCCGTCGCCGGCCGTGAGCCAGGGTTCTCCCGGGGCCGTGCTGCCCCTCCGTCTTTGTTCCCCTCGCGCGCTGCGAAAGACGTACGCCGTGCGAAGGCCGTCGGCTCCCGCACTCCCGACGACCTCCAACCTGTGAAATGGACGAATCATGACGA (double strand) [bldKA upstream PCR probe (265 bp)]
binding [1]: no binding

B1: SCO2136 59bp (dsDNA)
DNA 1: TTCCGCCACAACTCACCTGCAGTGACGTCTTCCTGACACCACGTTGCGTGACGGTTCCG
DNA 2: CGGAACCGTCACGCAACGTGGTGTCAGGAAGACGTCACTGCAGGTGAGTTGTGGCGGAA
binding result (MtrA (MtrASCO) [2]): binds

B2: SCO1189 59bp (dsDNA)
DNA 1: CTCCCGCCGACCTCACGTGCCGGTTACAAATCGCTCAACCTCTGGTTGCGAAGCGGTGA
DNA 2: TCACCGCTTCGCAACCAGAGGTTGAGCGATTTGTAACCGGCACGTGAGGTCGGCGGGAG
binding result (MtrA (MtrASCO) [3]): binds

B3: SCO2210 59bp (dsDNA)
DNA 1: GCCGCGCCACAACGAGCCCGGGTAACACGGGGTTCACCTACGGGCAACGGTCGGGAAAT
DNA 2: ATTTCCCGACCGTTGCCCGTAGGTGAACCCCGTGTTACCCGGGCTCGTTGTGGCGCGGC
binding result (MtrA (MtrASCO) [2]): binds

B4: SCO5583 59bp (dsDNA)
DNA 1: ACGACGACCGGCCCCGGCCGTTCACCCACGCGTAACACGCACCGTGCCTTCGTCACGGC
DNA 2: GCCGTGACGAAGGCACGGTGCGTGTTACGCGTGGGTGAACGGCCGGGGCCGGTCGTCGT
binding result (MtrA (MtrASCO) [2]): binds

B5: SCO3561 59bp (dsDNA)
DNA 1: AATTACTCTCTATTTACTCGCTGTAATCGAACGGATACTCAGGAGACGGGAACATGTCA
DNA 2: TGACATGTTCCCGTCTCCTGAGTATCCGTTCGATTACAGCGAGTAAATAGAGAGTAATT
binding result (MtrA (MtrASCO) [2]): binds

B6: SCO1489 (bldD) 59bp WT (dsDNA)
DNA 1: TGACGCAGCAGAGTAACGCTGCGTAACCTCACAGTGAGTTACCAGCCGCGCGGCCGACA
DNA 2: TGTCGGCCGCGCGGCTGGTAACTCACTGTGAGGTTACGCAGCGTTACTCTGCTGCGTCA
binding result (MtrA (MtrASCO) [4]): binds

B7: whiI-a 59bp WT (SCO6029-a) (dsDNA)
DNA 1: GATCTGGTGAGTAACAATCCGAGCAATTCGGACACACTGTCGATCATTCGAAGATCGAA
DNA 2: TTCGATCTTCGAATGATCGACAGTGTGTCCGAATTGCTCGGATTGTTACTCACCAGATC
binding result (MtrA (MtrASCO) [5]): binds

B8: SCO3863 59bp (dsDNA)
DNA 1: CGCCCGACTATACACACCGGCCGATACCGATCGGTGACCTGCGTCGGCGGTCAACTGCC
DNA 2: GGCAGTTGACCGCCGACGCAGGTCACCGATCGGTATCGGCCGGTGTGTATAGTCGGGCG
binding result (MtrA (MtrASCO) [2]): binds

B9: SCO7434 59bp (dsDNA)
DNA 1: ATACCGGTCCGGTGTGTCTGCGTGACGGAGCGGTTACGGACAGCATCATGAGCTCTGCA
DNA 2: TGCAGAGCTCATGATGCTGTCCGTAACCGCTCCGTCACGCAGACACACCGGACCGGTAT
binding result (MtrA (MtrASCO) [2]): binds

B10: SCO7458 59bp (dsDNA)
DNA 1: GGGCGACCGGTGGTCACCTGGTGTAACAGTCTTCTTATGATCTGTAGACGAAATGATCG
DNA 2: CGATCATTTCGTCTACAGATCATAAGAAGACTGTTACACCAGGTGACCACCGGTCGCCC
binding result (MtrA (MtrASCO) [2]): binds

B11: whiI-b 59bp WT (SCO6029-b) (dsDNA)
DNA 1: TCACAGTCGTCTTCGGCACCGAACGCGTCCGCCTTTAGAGAATGATCACGATCTGGTGA
DNA 2: TCACCAGATCGTGATCATTCTCTAAAGGCGGACGCGTTCGGTGCCGAAGACGACTGTGA
binding result (MtrA (MtrASCO) [6]): binds

B12: SCO3485 59bp (dsDNA)
DNA 1: ATGCCCGTTGTCGACCAGGCGTGTCACCGTATGGTAAACCGGTTATCTGTGACGCGCGG
DNA 2: CCGCGCGTCACAGATAACCGGTTTACCATACGGTGACACGCCTGGTCGACAACGGGCAT
binding result (MtrA (MtrASCO) [3]): binds

B13: SCO1568 59bp (dsDNA)
DNA 1: CTCTGGGTGTGCGTGACTCACCTCACGGGGCGGTCACGTTCCTGCGGGGCGGTGGTCTG
DNA 2: CAGACCACCGCCCCGCAGGAACGTGACCGCCCCGTGAGGTGAGTCACGCACACCCAGAG
binding result (MtrA (MtrASCO) [2]): binds
